Experimental data published in PMC2132664 (The Journal of Cell Biology, 1998).

Target: the molecule itself
Assay: single-spot fluorescence intensity

Protein	stoichiometry N
DEL K560–GFP (aa 341–370 of the neck coiled coil deleted) (domain or fragment, human, UniProt P33176 1-560, looked up) MADLAECNIKVMCRFRPLNESEVNRGDKYIAKFQGEDTVVIASKPYAFDRVFQSSTSQEQVYNDCAKKIVKDVLEGYNGTIFAYGQTSSGKTHTMEGKLHDPEGMGIIPRIVQDIFNYIYSMDENLEFHIKVSYFEIYLDKIRDLLDVSKTNLSVHEDKNRVPYVKGCTERFVCSPDEVMDTIDEGKSNRHVAVTNMNEHSSRSHSIFLINVKQENTQTEQKLSGKLYLVDLAGSEKVSKTGAEGAVLDEAKNINKSLSALGNVISALAEGSTYVPYRDSKMTRILQDSLGGNCRTTIVICCSPSSYNESETKSTLLFGQRAKTIKNTVCVNVELTAEQWGETVPIDEQFDKEKANLEAFTVDKDITLTNDKPATAIGVIGNFTDAERRKCEEEIAKLYKQLDDKDEEINQQSQLVEKLKTQMLDQEELLASTRRDQDNMQAELNRLQAENDASKEEVKEVLQALEELAVNYDQKSQEVEDKTKEYELLSDELNQKSATLASIDAELQKLKEMTNHQKKRAAEMMASLLK	2
STABLE COIL K560–GFP (aa 343–370 replaced by four repeats of EIEALKA) (domain or fragment, human) MADLAECNIKVMCRFRPLNESEVNRGDKYIAKFQGEDTVVIASKPYAFDRVFQSSTSQEQVYNDCAKKIVKDVLEGYNGTIFAYGQTSSGKTHTMEGKLHDPEGMGIIPRIVQDIFNYIYSMDENLEFHIKVSYFEIYLDKIRDLLDVSKTNLSVHEDKNRVPYVKGCTERFVCSPDEVMDTIDEGKSNRHVAVTNMNEHSSRSHSIFLINVKQENTQTEQKLSGKLYLVDLAGSEKVSKTGAEGAVLDEAKNINKSLSALGNVISALAEGSTYVPYRDSKMTRILQDSLGGNCRTTIVICCSPSSYNESETKSTLLFGQRAKTIKNTVCVNVELTAEQWKKEIEALKAEIEALKAEIEALKAEIEALKAGETVPIDEQFDKEKANLEAFTVDKDITLTNDKPATAIGVIGNFTDAERRKCEEEIAKLYKQLDDKDEEINQQSQLVEKLKTQMLDQEELLASTRRDQDNMQAELNRLQAENDASKEEVKEVLQALEELAVNYDQKSQEVEDKTKEYELLSDELNQKSATLASIDAELQKLKEMTNHQKKRAAEMMASLLK	2
